Source: article PMC5027577

Legend:
[1] = target: T1, TGF-β type I receptor (TRI) (human (endogenous in HeLa)), P36897; experiment: live-cell single-molecule TIRFM tracking (membrane on-times); EGFP-Smad3 or EGFP-M-Smad3 at low expression in living HeLa cells treated with 10 ng/ml TGF-β1 for 15 min at 37 °C; 10 Hz; cumulative histograms of on-times fitted with a single exponential; conditions: remark: other sources report otherwise
T1 chain: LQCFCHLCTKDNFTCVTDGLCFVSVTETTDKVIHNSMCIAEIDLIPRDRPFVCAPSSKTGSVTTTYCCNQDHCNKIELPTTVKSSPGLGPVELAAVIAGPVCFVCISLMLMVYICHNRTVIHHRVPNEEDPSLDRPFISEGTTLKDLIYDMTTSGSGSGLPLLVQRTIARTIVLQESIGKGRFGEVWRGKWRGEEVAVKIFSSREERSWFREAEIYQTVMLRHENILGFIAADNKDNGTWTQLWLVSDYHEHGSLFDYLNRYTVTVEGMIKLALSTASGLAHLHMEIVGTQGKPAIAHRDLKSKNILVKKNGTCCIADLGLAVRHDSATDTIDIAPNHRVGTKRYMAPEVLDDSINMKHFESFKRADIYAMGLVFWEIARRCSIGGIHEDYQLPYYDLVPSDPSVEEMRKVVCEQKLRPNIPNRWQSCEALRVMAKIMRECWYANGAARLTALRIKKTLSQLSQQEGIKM

[2] = target: T1, TGF-β type I receptor (TRI) (human …); experiment: live-cell single-molecule TIRFM tracking (membrane on-times); EGFP-Smad3 or EGFP-M-Smad3 at low expression in living HeLa cells, unstimulated; 10 Hz; cumulative histograms of on-times fitted with a single exponential; conditions: remark: other sources report otherwise

B1: EGFP-Smad3, P84022 1-425 (natural protein)
chain: MSSILPFTPPIVKRLLGWKKGEQNGQEEKWCEKAVKSLVKKLKKTGQLDELEKAITTQNVNTKCITIPRSLDGRLQVSHRKGLPHVIYCRLWRWPDLHSHHELRAMELCEFAFNMKKDEVCVNPYHYQRVETPVLPPVLVPRHTEIPAEFPPLDDYSHSIPENTNFPAGIEPQSNIPETPPPGYLSEDGETSDHQMNHSMDAGSPNLSPNPMSPAHNNLDLQPVTYCEPAFWCSISYYELNQRVGETFHASQPSMTVDGFTDPSNSERFCLGLLSNVNRNAAVELTRRHIGRGVRLYYIGGEVFAECLSDSAIFVQSPNCNQRYGWHPATVCKIPPGCNLKIFNNQEFAALLAQSVNQGFEAVYQLTRMCTIRMSFVKGWGAEYRRQTVTSTPCWIELHLNGPLQWLDKVLTQMGSPSIRCSSVS
B1 was tested, and the koff [1] was 1.67 s⁻¹, the time constant of membrane on-times (τs) [1] was 0.6 s and the koff [2] was 1.96 s⁻¹. It also gave a time constant of membrane on-times (τu) [2] of 0.51 s.
